Measured values reported in publication doi:10.1101/2020.08.02.233536.

Columns and labels:
[1] = target: His-tagged SARS-CoV-2 RBD protein (binding studies) (SARS-CoV-2) (UniProt P0DTC2); assay: BLI
[2] = target: His-tagged SARS-CoV RBD protein (binding studies) (SARS-CoV) (UniProt P59594); assay: BLI

Substance | Kd [1] [nM] | Kd [2] [nM]
COVA1–16 IgG1 antibody | 0.2 | 125
COVA1–16 Fab, His-tagged | 46 | 405
